Ends that are not written are not given here. * marks the point of attachment. Biotin = O=C1N[C@H]2[C@H](CS[C@H]2CCCCC(=O)*)N1; Ahx = NCCCCCC(=O)O
Experiments:
[1] = target: T1, Full length rat PICK1 (Protein Interacting with C Kinase-1) (rat, UniProt Q9EP80 1-416); assay: FP competition on purified PICK1, tracer 5FAM-HWLKV 20 nM; fold change against HWLKV [panel 1 from the left]
T1 construct: mature; Residues left by the cleaved tag are not described; also called purified PICK1

[2] = target: T1, Full length rat PICK1 (Protein …); assay: FP competition on purified PICK1, tracer 5FAM-HWLKV 20 nM; fold change against HWLKV [panel 3 from the left]
[3] = target: T1, Full length rat PICK1 (Protein …); assay: FP competition on purified PICK1, tracer 5FAM-HWLKV 20 nM; fold change against HWLKV [panel 4 from the left]
[4] = target: T1, Full length rat PICK1 (Protein …); assay: FP competition on purified PICK1, tracer 5FAM-HWLKV 20 nM; fold change against HWLKV [panel 2 from the left]
[5] = target: T1, Full length rat PICK1 (Protein …); assay: FP competition on purified PICK1, tracer 5FAM-HWLKV 20 nM; fold change against HWLKV [panel 5 from the left]
[6] = target: T2, PICK1 protein in mouse spinal cord lysate (mouse, UniProt Q62083 1-416); assay: pull-down with biotinylated peptide on streptavidin beads from mouse spinal cord lysate, western blot [D]
T2 construct: Endogenous protein, detected by Western blot after pull-down

[7] = target: T3, nNOS protein in mouse spinal cord lysate (mouse, UniProt Q9Z0J4 1-1429, limits assumed); assay: as above
T3 construct: Endogenous protein, detected by Western blot after pull-down

[8] = target: T4, PSD-95 protein in mouse spinal cord lysate (mouse, UniProt Q62108 1-724, limits assumed); assay: as above
T4 construct: Endogenous protein, detected by Western blot after pull-down

[9] = target: T5, TRX-6xHis-hPSD95 1-724 (full length human PSD-95) (human, UniProt P78352 1-724, Alexa488 label in the confocal experiment of Example 5 only); assay: SDS-PAGE sedimentation assay
T5 construct: range 1-724; Purified by HisTrap and SEC; also called FL-PSD-95; not shown: TRX-6xHis tag encoded by the pET-MG-3C plasmid

[10] = target: T1, Full length rat PICK1 (Protein …); assay: FP competition, tracer 5-FAM-(HWLKV)2 10 nM, PICK1 (Example 8)
Protocol: The plates were incubated 30-40 min on ice and the fluorescence polarization was measured on an Omega POLARstar plate (BMG LABTECH) reader using excitation filter at 485 nm and long pass emission filter at 520 nm. The data was plotted using GraphPad Prism 8.3, and fitted to the ‘One site—Fit’ Kᵢ competition curve, to extract apparent KI values.

PSD-95 PDZ1-2 = target: T6, PSD-95 PDZ1-2 (UniProt P78352 61-249, limits assumed); assay: FP competition, tracer 5-FAM-(IETAV)2 5 nM, PSD-95 PDZ12 0.15 µM
T6 construct: domain: PDZ1-2
Description: FIG. 18: Fluorescence polarization competition binding curves for the unlabelled peptides. […] Data expressed as mean±SEM (n=3).
The data was plotted using GraphPad Prism 8.3, and fitted to the ‘One site—Fit’ Kᵢ competition curve, to extract apparent KI values.

[11] = target: T1, Full length rat PICK1 (Protein …); assay: FP competition (FIG. 17C)

B1: NYIRV (peptide)
peptide: NYIRV
notes: also called DAT-C5 variant
binding result [1]: binds

B2: FEIIV (peptide)
peptide: FEIIV
notes: also called DAT-C5 variant
binding result [2]: binds

B3: FEIRV (peptide)
peptide: FEIRV
notes: also called DAT-C5 variant
binding result [2]: binds

B4: FEVIV (peptide)
peptide: FEVIV
notes: also called DAT-C5 variant
binding result [3]: binds

B5: FEVRV (peptide)
peptide: FEVRV
notes: also called DAT-C5 variant
binding result [3]: binds

B6: FSIIV (peptide)
peptide: FSIIV
notes: also called DAT-C5 variant
binding result [2]: binds

B7: FSIRV (peptide)
peptide: FSIRV
notes: also called DAT-C5 variant
binding result [2]: binds

B8: FSVRV (peptide)
peptide: FSVRV
notes: also called DAT-C5 variant
binding result [2]: binds

B9: FYIIV (peptide)
peptide: FYIIV
notes: also called DAT-C5 variant
binding result [3]: binds

B10: FYIRV (peptide)
peptide: FYIRV
notes: also called DAT-C5 variant
binding result [3]: binds

B11: FYVIV (peptide)
peptide: FYVIV
notes: also called DAT-C5 variant
binding result [3]: binds

B12: FYVRV (peptide)
peptide: FYVRV
notes: also called DAT-C5 variant
binding result [3]: binds

B13: NEIIV (peptide)
peptide: NEIIV
notes: also called DAT-C5 variant
binding result [1]: binds

B14: NEIRV (peptide)
peptide: NEIRV
notes: also called DAT-C5 variant
binding result [1]: binds

B15: NEVRV (peptide)
peptide: NEVRV
notes: also called DAT-C5 variant
binding result [1]: binds

B16: NSIIV (peptide)
peptide: NSIIV
notes: also called DAT-C5 variant
binding result [1]: binds

B17: NSIRV (peptide)
peptide: NSIRV
notes: also called DAT-C5 variant
binding result [1]: binds

B18: NSVIV (peptide)
peptide: NSVIV
notes: also called DAT-C5 variant
binding result [1]: binds

B19: NSVRV (peptide)
peptide: NSVRV
notes: also called DAT-C5 variant
binding result [1]: binds

B20: NYIIV (peptide)
peptide: NYIIV
notes: also called DAT-C5 variant
binding result [1]: binds

B21: NYVIV (peptide)
peptide: NYVIV
notes: also called DAT-C5 variant
binding result [4]: binds

B22: NYVRV (peptide)
peptide: NYVRV
notes: also called DAT-C5 variant
binding result [4]: binds

B23: TEIRV (peptide)
peptide: TEIRV
notes: also called DAT-C5 variant
binding result [4]: binds

B24: TEVIV (peptide)
peptide: TEVIV
notes: also called DAT-C5 variant
binding result [4]: binds

B25: TEVRV (peptide)
peptide: TEVRV
notes: also called DAT-C5 variant
binding result [4]: binds

B26: TSIIV (peptide)
peptide: TSIIV
notes: also called DAT-C5 variant
binding result [4]: binds

B27: TSIRV (peptide)
peptide: TSIRV
notes: also called DAT-C5 variant
binding result [4]: binds

B28: TSVIV (peptide)
peptide: TSVIV
notes: also called DAT-C5 variant
binding result [4]: binds

B29: TYIIV (peptide)
peptide: TYIIV
notes: also called DAT-C5 variant
binding result [2]: binds

B30: TYIRV (peptide)
peptide: TYIRV
notes: also called DAT-C5 variant
binding result [2]: binds

B31: TYVIV (peptide)
peptide: TYVIV
notes: also called DAT-C5 variant
binding result [2]: binds

B32: TYVRV (peptide)
peptide: TYVRV
notes: also called DAT-C5 variant
binding result [2]: binds

B33: EVIV (peptide)
peptide: EVIV
notes: also called DAT-C5 variant
binding result [5]: binds

B34: EIIV (peptide)
peptide: EIIV
notes: also called DAT-C5 variant
binding result [3]: binds

B35: EIRV (peptide)
peptide: EIRV
notes: also called DAT-C5 variant
binding result [5]: binds

B36: EVRV (peptide)
peptide: EVRV
notes: also called DAT-C5 variant
binding result [5]: binds

B37: SIIV (peptide)
peptide: SIIV
notes: also called DAT-C5 variant
binding result [3]: binds

B38: SVIV (peptide)
peptide: SVIV
notes: also called DAT-C5 variant
binding result [3]: binds

B39: SVRV (peptide)
peptide: SVRV
notes: also called DAT-C5 variant
binding result [3]: binds

B40: YIIV (peptide)
peptide: YIIV
notes: also called DAT-C5 variant
binding result [5]: binds

B41: YIRV (peptide)
peptide: YIRV
notes: also called DAT-C5 variant
binding result [5]: binds

B42: YVIV (peptide)
peptide: YVIV
notes: also called DAT-C5 variant
binding result [5]: binds

B43: YVRV (peptide)
peptide: YVRV
notes: also called DAT-C5 variant
binding result [5]: binds

B44: GCN4p1-GS4-GS4 (non-binding control peptide) (peptide)
peptide: not shown
modifications: N-terminal biotin joined through 6-aminohexanoic acid (Ahx)
notes: also called biotin-Ahx-GCN4p1-GS4-GS4; biotin-Ahx-GCN4p1-GS-GS
binding result [6]: no binding | binding result [7]: no binding | binding result [8]: no binding

B45: SNTANRRTTPV (peptide)
peptide: SNTANRRTTPV
notes: also called Stg; RRTTPV monomer
binding result [9]: binds

B46: CC-Tet-GS4-HWLKV (peptide)
peptide: {Biotin-Ahx}-GELAAIKQELAAIKKELAAIKWELAAIKQGGGGSHWLKV
notes: also called CC-tet2-GS4-HWLKV
Ki [10]: 2.47 nM

B47: CC-Hex2-GS4-HWLKV (peptide)
peptide: {Biotin-Ahx}-GEIAKSLKEIAKSLKEIAWSLKEIAKSLKGGGGSHWLKV
notes: also called CC-hex-GS4-HWLKV
Ki [10]: 22.9 nM

B48: CC-Hex2-GS4-IETDV (peptide)
peptide: {Biotin-Ahx}-GEIAKSLKEIAKSLKEIAWSLKEIAKSLKGGGGSIETDV
Ki (PSD-95 PDZ1-2): 56 nM

B49: CC-Hex2-GS4-RRTTPV (peptide)
peptide: {Biotin-Ahx}-GEIAKSLKEIAKSLKEIAWSLKEIAKSLKGGGGSRRTTPV
Ki (PSD-95 PDZ1-2): 242 nM

B50: CC-Hex2-GS4-NSVRV (peptide)
peptide: {Biotin-Ahx}-GEIAKSLKEIAKSLKEIAWSLKEIAKSLKGGGGSNSVRV
binding result [11]: binds
